According to paper PMC10144703, “Molecular Mechanism of Sirtuin 1 Inhibition by Human Immunodeficiency Virus 1 Tat Protein” (Life, 2023):
Where no end group is shown, it is not given here.

Biological target: human mini-Sirt1 (aa 183-505-(GGGS)2-641-665) (human) (UniProt Q96EB6)
Sequence (Q96EB6 other isoform, or with tags, fused parts or gaps): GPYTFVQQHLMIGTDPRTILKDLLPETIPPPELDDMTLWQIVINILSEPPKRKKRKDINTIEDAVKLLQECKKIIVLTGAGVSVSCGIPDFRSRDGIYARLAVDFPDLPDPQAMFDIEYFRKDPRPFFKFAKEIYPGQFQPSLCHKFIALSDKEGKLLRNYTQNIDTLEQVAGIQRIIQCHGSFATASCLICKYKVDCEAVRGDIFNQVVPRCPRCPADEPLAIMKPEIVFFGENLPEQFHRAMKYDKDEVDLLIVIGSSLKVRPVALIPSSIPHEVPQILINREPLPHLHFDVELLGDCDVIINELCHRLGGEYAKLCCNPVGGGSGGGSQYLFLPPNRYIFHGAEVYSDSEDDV

B1: Tat-46–54 (non-acetylated) (peptide)
peptide: SYGRKKRRQ
modifications: not fully specified
- inhibition of mini-Sirt1 in the FdL assay; IC50: 131 µM
